Source: patent US20070078102A1, “NF-kB oligonucleotide decoy molecules” (published 2007)

B1: 153/154 PS/PO (dsDNA)
DNA 1: AGTTGAGGACTTTCCAGGC
DNA 2: GCCTGGAAAGTCCTCAACT
modifications: strand 153 full PS; strand 154 PO
B2: decoy 141 A-Z-2 (dsDNA)
DNA 1: GTTGAGGGACTTTCCAGG
DNA 2: CCTGGAAAGTCCCTCAAC
B3: decoy 197 C-W (dsDNA)
DNA 1: CTCGGGGACTTTCCCTGT
DNA 2: ACAGGGAAAGTCCCCGAG
B4: 153/154 H10/H8 (dsDNA)
DNA 1: AGTTGAGGACTTTCCAGGC
DNA 2: GCCTGGAAAGTCCTCAACT
modifications: PS at the 10 (153) and 8 (154) 3'-most linkages
B5: 153/154 H7/H7 (dsDNA)
DNA 1: AGTTGAGGACTTTCCAGGC
DNA 2: GCCTGGAAAGTCCTCAACT
modifications: PS at the 7 3'-most linkages of each strand
B6: 153/154 H6/H6 (dsDNA)
DNA 1: AGTTGAGGACTTTCCAGGC
DNA 2: GCCTGGAAAGTCCTCAACT
modifications: PS at the 6 3'-most linkages of each strand
B7: 153/154 H4/H4 (dsDNA)
DNA 1: AGTTGAGGACTTTCCAGGC
DNA 2: GCCTGGAAAGTCCTCAACT
modifications: PS at the 4 3'-most linkages of each strand
B8: decoy 227 H-V (dsDNA)
DNA 1: TCGGATTTCCTC
DNA 2: GAGGAAATCCGA
B9: decoy 173 E-Z-4 (dsDNA)
DNA 1: TTGAGGACTTTCCAG
DNA 2: CTGGAAAGTCCTCAA
B10: 153/154 H8/H10 (dsDNA)
DNA 1: AGTTGAGGACTTTCCAGGC
DNA 2: GCCTGGAAAGTCCTCAACT
modifications: PS at the 8 (153) and 10 (154) 3'-most linkages
B11: decoy 117 E-U (dsDNA)
DNA 1: ATGGACTTTCCGT
DNA 2: ACGGAAAGTCCAT
B12: 153/154 H5/H5 (dsDNA)
DNA 1: AGTTGAGGACTTTCCAGGC
DNA 2: GCCTGGAAAGTCCTCAACT
modifications: PS at the 5 3'-most linkages of each strand
B13: decoy 281 E-Z EVEN (dsDNA)
DNA 1: TTGAGGACTTTCCAGGC
DNA 2: GCCTGGAAAGTCCTCAA
B14: 153/154 PO/H5 (dsDNA)
DNA 1: AGTTGAGGACTTTCCAGGC
DNA 2: GCCTGGAAAGTCCTCAACT
modifications: strand 153 PO; strand 154 PS at the 5 3'-most linkages
B15: 153/154 PS/PS (dsDNA)
DNA 1: AGTTGAGGACTTTCCAGGC
DNA 2: GCCTGGAAAGTCCTCAACT
modifications: full PS, both strands
B16: 153/154 H5/PO (dsDNA)
DNA 1: AGTTGAGGACTTTCCAGGC
DNA 2: GCCTGGAAAGTCCTCAACT
modifications: strand 153 PS at the 5 3'-most linkages; strand 154 PO
B17: 153/154 H10/H10 (dsDNA)
DNA 1: AGTTGAGGACTTTCCAGGC
DNA 2: GCCTGGAAAGTCCTCAACT
modifications: PS at the 10 3'-most linkages of each strand
B18: decoy 289 (dsDNA)
DNA 1: TGAGGACTTTCCAGGC
DNA 2: GCCTGGAAAGTCCTCA
B19: 153/154 H3/H3 (dsDNA)
DNA 1: AGTTGAGGACTTTCCAGGC
DNA 2: GCCTGGAAAGTCCTCAACT
modifications: PS at the 3 3'-most linkages of each strand
B20: decoy 295 (dsDNA)
DNA 1: TGAGGACTTTCCAGGCTC
DNA 2: GAGCCTGGAAAGTCCTCA
B21: 153/154 H11/PO (dsDNA)
DNA 1: AGTTGAGGACTTTCCAGGC
DNA 2: GCCTGGAAAGTCCTCAACT
modifications: strand 153 PS at the 11 3'-most linkages; strand 154 PO
B22: 153/154 H9/H9 (dsDNA)
DNA 1: AGTTGAGGACTTTCCAGGC
DNA 2: GCCTGGAAAGTCCTCAACT
modifications: PS at the 9 3'-most linkages of each strand
B23: decoy 177 E-W (dsDNA)
DNA 1: CTCGGACTTTCCTGT
DNA 2: ACAGGAAAGTCCGAG
B24: 153/154 H8/H8 (dsDNA)
DNA 1: AGTTGAGGACTTTCCAGGC
DNA 2: GCCTGGAAAGTCCTCAACT
modifications: PS at the 8 3'-most linkages of each strand

Each binder was assayed against NF-kB p50/p50 homodimer (NFKB1) (Homo sapiens, UniProt P19838 P19838:1-433) (assay: EMSA; competition vs 32P 113/114 probe). Details: protein: extract; tags: none; nuclear extract of LPS-stimulated THP-1 cells; chain copies: 2 (stated homodimer).
Source text: (§1) The EMSA assay was employed to characterize oligonucleotide decoys for the NF-κB transcription factor. […] Using the above modified oligonucleotides to compete for binding for the above-mentioned NF-κB family members, it was possible to compare the binding affinity of these oligonucleotides against the high affinity radiolabeled probe and each other. This assay has also enabled the design of a decoy which selectively binds particular members of the NF-κB family. By using increasing concentrations of various oligonucleotides, it was observed that, by deleting or changing targeted residues in the binding site, it was possible to specifically decrease the binding of the decoy molecule to p50/p50 homodimers, while retaining the affinity for p65/p50 and cRel/p50 heterodimers.
(§2) The NF-κB gel shift assays (EMSA) were performed as follows. A double-stranded oligonucleotide containing a consensus NF-κB binding site (5′ […] 3′) (SEQ ID NO: 78) was end-labeled with γ³²P-ATP using T4 Polynucleotide Kinase (Promega). Alternatively, a double-stranded ODN containing a consensus NF-κB binding site from the IL-6 promoter (5′ […] 3′) (SEQ ID NO: 94) was end-labeled with γ³²P-ATP using T4 Polynucleotide Kinase (Promega). One microgram of a nuclear extract prepared from LPS stimulated THP-1 cells (human monocyte cell line) was incubated with 35 fmol of radiolabeled probe in the presence or absence of competing unlabeled NF-κB double-stranded oligonucleotides (dsODN) or scrambled dsODN. The incubations were carried out at room temperature for 30 minutes in a 20 μl reaction volume composed of 10 mM Tris-HCl pH 8, 100 mM KCL, 5 mM MgCl2, 2 mM DTT, 10% Glycerol, 0.1% NP-40, 0.025% BSA and 1 μg Poly-dIdC. The reactions were loaded onto a 6% polyacrylamide gel, subjected to electrophoresis and dried. The dried gels were imaged and quantitated using a Typhoon 8600 PhosphorImager (Amersham) and ImageQuant software.

NF-kB p50/p50 homodimer (NFKB1), sequence (P19838 1-433, one chain of several): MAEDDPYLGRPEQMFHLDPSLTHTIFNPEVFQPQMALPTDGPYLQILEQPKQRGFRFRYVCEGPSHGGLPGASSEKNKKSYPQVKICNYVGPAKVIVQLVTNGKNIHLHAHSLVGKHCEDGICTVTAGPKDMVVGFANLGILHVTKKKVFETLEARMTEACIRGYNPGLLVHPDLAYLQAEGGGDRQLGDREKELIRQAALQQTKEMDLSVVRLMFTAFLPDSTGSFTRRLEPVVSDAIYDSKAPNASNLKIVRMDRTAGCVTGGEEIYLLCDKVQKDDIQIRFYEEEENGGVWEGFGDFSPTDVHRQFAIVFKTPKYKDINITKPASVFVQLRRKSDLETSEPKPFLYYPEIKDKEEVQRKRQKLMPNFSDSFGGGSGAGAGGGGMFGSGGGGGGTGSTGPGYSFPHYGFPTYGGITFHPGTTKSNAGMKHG

Going from B1 to B2, the IC50 rises from 5 fold molar excess to 10 fold molar excess.

Work on B3 yielded an IC50 of 17.5 fold molar excess.

These binders were tested against NF-kB p65/p50 heterodimer (RelA/NFKB1) (Homo sapiens, UniProt Q04206;P19838 Q04206:1-551,P19838:1-433) (assay: EMSA; competition vs 32P 113/114 probe). Details: protein: extract; tags: none; nuclear extract of LPS-stimulated THP-1 cells.
Source text: as §1, §2

NF-kB p65/p50 heterodimer (RelA/NFKB1), sequence (Q04206 whole entry, chain 1 of 2): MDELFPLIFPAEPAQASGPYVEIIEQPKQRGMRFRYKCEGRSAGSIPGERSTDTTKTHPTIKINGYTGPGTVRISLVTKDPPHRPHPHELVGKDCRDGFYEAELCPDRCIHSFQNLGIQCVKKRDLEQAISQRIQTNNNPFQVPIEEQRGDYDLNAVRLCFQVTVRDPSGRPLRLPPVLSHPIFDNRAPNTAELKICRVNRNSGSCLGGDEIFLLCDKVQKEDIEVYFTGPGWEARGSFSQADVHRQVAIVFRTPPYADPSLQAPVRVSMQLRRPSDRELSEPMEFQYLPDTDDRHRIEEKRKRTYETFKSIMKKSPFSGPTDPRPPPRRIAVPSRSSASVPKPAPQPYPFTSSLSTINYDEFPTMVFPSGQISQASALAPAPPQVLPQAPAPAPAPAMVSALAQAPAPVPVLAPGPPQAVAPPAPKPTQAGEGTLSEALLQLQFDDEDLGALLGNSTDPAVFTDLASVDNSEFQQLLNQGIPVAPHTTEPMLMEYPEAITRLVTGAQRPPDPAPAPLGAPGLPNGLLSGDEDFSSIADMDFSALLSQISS
NF-kB p65/p50 heterodimer (RelA/NFKB1), sequence (P19838 1-433, chain 2 of 2): as the sequence (P19838 1-433, one chain of several) above

Compared with B4, B5 is higher in IC50: 9 fold molar excess for the first, 39 fold molar excess for the second.

Compared with B6, B1 is lower in IC50: 40 fold molar excess for the first, 5 fold molar excess for the second.

Going from B7 to B8, the IC50 falls from 85 fold molar excess to 74 fold molar excess.

Compared with B2, B9 is higher in IC50: 7.5 fold molar excess for the first, 55 fold molar excess for the second.

Going from B10 to B11, the IC50 rises from 33 fold molar excess to 72.5 fold molar excess.

Going from B3 to B12, the IC50 rises from 26 fold molar excess to 50 fold molar excess.

Going from B13 to B14, the IC50 falls from 87 fold molar excess to 65 fold molar excess.

First: B15
Second: B16
The IC50 of the first is lower: 5 fold molar excess for the first, 59 fold molar excess for the second.

Going from B17 to B18, the IC50 rises from 21 fold molar excess to 93 fold molar excess.

Compared with B19, B20 is higher in IC50: 45 fold molar excess for the first, 92 fold molar excess for the second.

First: B21
Second: B22
The IC50 of the first is lower: 7.5 fold molar excess for the first, 17 fold molar excess for the second.

Going from B23 to B24, the IC50 falls from 57.5 fold molar excess to 29 fold molar excess.
